Experiment [1] concerns the target T1, rhMer-Fc (Homo sapiens, UniProt Q12866).
T1 construct: purchased R and D Systems 891-MR
In words: ELISA binding on immobilized rhMer-Fc protein. Conditions: starting concentration 5 μg/ml, 1/2 serial dilutions. How it is done:
(§1) Briefly, the recombinant human Axl-Fc (R and D systems, cat N° 154AL/CF), rhDtk (R and D Systems, cat N° 859-DK) or rhMer-Fc (R and D Systems, cat N° 891-MR) proteins were coated overnight at 4° C. to Immulon II 96-well plates and, after a 1 h blocking step with a 0.5% gelatine solution, 1613F12 was added for an additional 1 h at 37° C. at starting concentration of 5 μg/ml (3.33 10^−8M). Then ½ serial dilutions were done over 12 columns. Plates were washed and a goat anti-mouse (Jackson) specific IgG-HRP was added for 1 h at 37° C. Reaction development was performed using the TMB substrate solution. The isotype control antibody mIgG1 and the commercial anti-Axl Mab 154 antibody were also used in parallel. Coating controls were performed in presence of a goat anti-human IgG Fc polyclonal serum labelled with HRP (Jackson, ref 109-035-098) and/or in presence of a HRP-coupled anti-Histidine antibody (R and D Systems, ref: MAB050H).
(In general: An ELISA detects its analyte on a solid surface through an enzyme-linked reagent.)

The target in experiment [2] is T2, rhMer-Fc (R and D Systems, cat N° 891-MR) (human, UniProt Q12866 26-499, limits assumed).
T2 construct: Bought protein; not shown: Fc of human IgG
T2 sequence (looked up): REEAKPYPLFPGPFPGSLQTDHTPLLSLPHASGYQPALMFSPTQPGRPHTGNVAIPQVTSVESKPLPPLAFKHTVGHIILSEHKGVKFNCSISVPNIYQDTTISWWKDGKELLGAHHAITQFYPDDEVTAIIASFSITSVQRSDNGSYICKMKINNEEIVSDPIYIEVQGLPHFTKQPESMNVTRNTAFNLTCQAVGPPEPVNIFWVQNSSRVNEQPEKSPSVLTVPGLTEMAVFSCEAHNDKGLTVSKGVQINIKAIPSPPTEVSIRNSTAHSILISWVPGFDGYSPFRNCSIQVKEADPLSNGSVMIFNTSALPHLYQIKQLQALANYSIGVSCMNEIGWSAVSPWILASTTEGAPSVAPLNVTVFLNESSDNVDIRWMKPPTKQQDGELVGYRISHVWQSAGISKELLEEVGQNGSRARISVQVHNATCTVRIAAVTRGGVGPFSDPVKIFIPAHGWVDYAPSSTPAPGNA
Put plainly: ELISA on coated protein.

Experiment [3] addresses T3, rhDtk-Fc (Homo sapiens, UniProt Q06418).
T3 construct: purchased R and D Systems 859-DK
In words: ELISA binding on immobilized rhDtk-Fc protein. The conditions noted are these: starting concentration 5 μg/ml, 1/2 serial dilutions. How it is done: as §1

The target in experiment [4] is T4, membrane Axl receptor (Homo sapiens, UniProt P30530).
T4 construct: endogenous in cells; host or cells: human tumor cell lines SN12C, Calu-1, MDA-MB435S, MDA-MB231, NCI-H125, MCF7 (Axl-negative), Panc1
T4 sequence (P30530 26-894): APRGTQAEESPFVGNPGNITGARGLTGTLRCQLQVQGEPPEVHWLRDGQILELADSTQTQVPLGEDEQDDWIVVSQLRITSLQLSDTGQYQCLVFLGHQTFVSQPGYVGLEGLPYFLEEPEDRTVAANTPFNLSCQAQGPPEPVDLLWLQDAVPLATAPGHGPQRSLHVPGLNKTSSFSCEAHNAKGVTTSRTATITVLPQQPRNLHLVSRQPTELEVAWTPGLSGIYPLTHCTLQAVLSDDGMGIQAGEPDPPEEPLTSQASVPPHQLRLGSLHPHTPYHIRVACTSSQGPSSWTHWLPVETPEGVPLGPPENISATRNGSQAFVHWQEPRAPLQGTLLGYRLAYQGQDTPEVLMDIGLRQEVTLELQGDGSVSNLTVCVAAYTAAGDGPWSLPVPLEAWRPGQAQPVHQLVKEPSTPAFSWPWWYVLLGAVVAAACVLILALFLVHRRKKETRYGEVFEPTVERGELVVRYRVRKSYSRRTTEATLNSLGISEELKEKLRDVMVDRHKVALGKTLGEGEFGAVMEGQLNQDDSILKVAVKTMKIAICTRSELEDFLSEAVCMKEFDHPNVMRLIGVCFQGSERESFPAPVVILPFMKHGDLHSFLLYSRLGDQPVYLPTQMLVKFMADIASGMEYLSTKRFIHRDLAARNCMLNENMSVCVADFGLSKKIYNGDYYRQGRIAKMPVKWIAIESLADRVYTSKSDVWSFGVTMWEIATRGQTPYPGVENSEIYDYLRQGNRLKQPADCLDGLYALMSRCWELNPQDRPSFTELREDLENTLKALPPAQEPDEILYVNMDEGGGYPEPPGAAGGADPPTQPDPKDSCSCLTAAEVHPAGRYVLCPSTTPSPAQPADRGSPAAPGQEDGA
Put plainly: FACS binding on human tumor cells. Conditions: various human tumor cells. As to the method: For cell surface binding studies, two fold serial dilutions of a 10 μg/ml (6.66 10^−8 M) primary antibody solution (1613F12, MAB154 or mIgG1 isotype control 9G4 Mab) are prepared and are applied on 2·10^5 cells for 20 min at 4° C. After 3 washes in phosphate-buffered saline (PBS) supplemented with 1% BSA and 0.01% NaN3, cells were incubated with secondary antibody Goat anti-mouse Alexa 488 ( 1/500° dilution) for 20 minutes at 4° C. After 3 additional washes in PBS supplemented with 1% BSA and […], cells were analyzed by FACS (Facscalibur, Becton-Dickinson). At least 5000 cells were assessed to calculate the mean value of fluorescence intensity.
1613F12 dose response curves were prepared. MFIs obtained using the various human tumor cells were then analysed with Prism software.

The target in experiment [5] is T5, rhAxl-Fc protein (Homo sapiens, UniProt P30530).
T5 construct: purchased R and D Systems 154AL/CF
T5 sequence (P30530 26-451 limits assumed): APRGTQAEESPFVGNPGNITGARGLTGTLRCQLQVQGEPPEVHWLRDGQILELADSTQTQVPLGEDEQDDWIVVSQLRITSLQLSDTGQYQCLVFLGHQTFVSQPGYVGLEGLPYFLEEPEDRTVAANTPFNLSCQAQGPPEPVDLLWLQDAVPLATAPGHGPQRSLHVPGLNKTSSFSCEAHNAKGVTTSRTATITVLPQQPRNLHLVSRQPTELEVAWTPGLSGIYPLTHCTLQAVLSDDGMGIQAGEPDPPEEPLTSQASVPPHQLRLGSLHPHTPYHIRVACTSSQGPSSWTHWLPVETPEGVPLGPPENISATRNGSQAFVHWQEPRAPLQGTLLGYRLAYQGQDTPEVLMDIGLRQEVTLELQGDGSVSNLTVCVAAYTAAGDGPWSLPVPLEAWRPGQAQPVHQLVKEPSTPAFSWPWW
Put plainly: ELISA binding on immobilized rhAxl-Fc protein. The conditions noted are these: starting concentration 5 μg/ml, 1/2 serial dilutions. As to the method: as §1

T3 sequence (Q06418 with tags, fused parts or gaps limits assumed): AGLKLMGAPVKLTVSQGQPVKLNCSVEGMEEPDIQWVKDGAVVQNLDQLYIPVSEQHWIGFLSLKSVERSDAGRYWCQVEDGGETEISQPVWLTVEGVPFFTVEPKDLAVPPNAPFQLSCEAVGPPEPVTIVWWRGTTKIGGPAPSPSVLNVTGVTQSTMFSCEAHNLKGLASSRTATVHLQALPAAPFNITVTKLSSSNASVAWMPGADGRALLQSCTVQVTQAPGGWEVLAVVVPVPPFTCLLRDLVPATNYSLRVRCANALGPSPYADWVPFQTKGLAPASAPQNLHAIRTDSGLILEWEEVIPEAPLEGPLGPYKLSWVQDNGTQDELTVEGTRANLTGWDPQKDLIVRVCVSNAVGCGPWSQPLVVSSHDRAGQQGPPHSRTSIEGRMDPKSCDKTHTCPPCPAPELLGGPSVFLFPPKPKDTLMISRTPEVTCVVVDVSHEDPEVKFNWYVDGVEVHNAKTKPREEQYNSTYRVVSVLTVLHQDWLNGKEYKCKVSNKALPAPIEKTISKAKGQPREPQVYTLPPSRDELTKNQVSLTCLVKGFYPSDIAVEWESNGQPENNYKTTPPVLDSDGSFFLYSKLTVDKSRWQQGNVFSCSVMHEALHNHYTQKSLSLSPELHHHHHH
T1 sequence (Q12866 with tags, fused parts or gaps limits assumed): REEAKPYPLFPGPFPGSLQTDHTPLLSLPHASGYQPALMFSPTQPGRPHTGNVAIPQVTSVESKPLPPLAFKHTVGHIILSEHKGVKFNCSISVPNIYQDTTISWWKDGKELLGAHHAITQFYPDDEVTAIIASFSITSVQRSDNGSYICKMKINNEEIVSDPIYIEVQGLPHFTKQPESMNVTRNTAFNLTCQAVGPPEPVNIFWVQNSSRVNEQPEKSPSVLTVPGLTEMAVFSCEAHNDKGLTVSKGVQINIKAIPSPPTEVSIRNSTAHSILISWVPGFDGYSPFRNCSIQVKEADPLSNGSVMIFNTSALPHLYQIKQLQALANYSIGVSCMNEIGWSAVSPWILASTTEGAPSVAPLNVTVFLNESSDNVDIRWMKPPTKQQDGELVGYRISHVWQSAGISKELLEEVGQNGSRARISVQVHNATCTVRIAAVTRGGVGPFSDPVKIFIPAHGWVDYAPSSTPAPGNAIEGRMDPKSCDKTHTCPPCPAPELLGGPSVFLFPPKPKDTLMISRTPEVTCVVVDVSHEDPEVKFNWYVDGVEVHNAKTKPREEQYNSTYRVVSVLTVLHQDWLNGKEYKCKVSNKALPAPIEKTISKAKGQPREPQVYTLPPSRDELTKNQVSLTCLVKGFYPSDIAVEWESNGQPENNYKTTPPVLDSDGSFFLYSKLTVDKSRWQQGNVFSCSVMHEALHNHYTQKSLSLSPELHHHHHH

B1: m1613F12 (murine 1613F12, hybridoma CNCM I-4505) (antibody, V domains shown)
VH: EVHLQQSGAELVKPGASVKLSCTASGFNIRDTYIHWVKQRPEQGLEWIGRLDPANGHTKYGPNFQGRATMTSDTSSNTAYLQLSSLTSEDTAVYYCARGAYYYGSSGLFYFDYWGQGTTLSVSS
VL: DVQITQSPSYLATSPGETITINCRASKSISKYLAWYQEKPGKTNKLLIYSGSTLQSGVPSRFSGSGSGTDFTLTISSLEPEDFAMYFCQQHHEYPLTFGAGTELELK
notes: Murine monoclonal antibody; also called Axl antibody
Regarding B1, the “binding on rhMer (ELISA)” value in experiment [1] is on record as “does not bind”. The binding result in experiment [2] is given as “no binding”. For the same molecule, in experiment [3], the “binding on rhDtk (ELISA)” value is given as “does not bind”. Besides, in experiment [4], the “binding to membrane Axl receptor on human tumor cells (FACS, saturation curves)” value was “binds specifically to the membrane Axl receptor”. Besides, the “binding on rhAxl-Fc protein (ELISA)” value in experiment [5] is “only binds to the rhAxl-Fc protein”.

These data come from patent publication US20160106861A1, “AXL ANTIBODY-DRUG CONJUGATE AND ITS USE FOR THE TREATMENT OF CANCER” (PIERRE FABRE MEDICAMENT, priority 2013, published 2016).
